From patent US20250163117A1 (CURE GENETICS, published 2025) come the findings set out here.

Assay in all cases: cell-based or functional assay
Assay [1] has as its target T1, human intermediate-affinity IL-2 receptor IL-2Rβγ on cells (human, UniProt P14784 27-551; P31785 23-369).
T1 sequence (looked up) 1: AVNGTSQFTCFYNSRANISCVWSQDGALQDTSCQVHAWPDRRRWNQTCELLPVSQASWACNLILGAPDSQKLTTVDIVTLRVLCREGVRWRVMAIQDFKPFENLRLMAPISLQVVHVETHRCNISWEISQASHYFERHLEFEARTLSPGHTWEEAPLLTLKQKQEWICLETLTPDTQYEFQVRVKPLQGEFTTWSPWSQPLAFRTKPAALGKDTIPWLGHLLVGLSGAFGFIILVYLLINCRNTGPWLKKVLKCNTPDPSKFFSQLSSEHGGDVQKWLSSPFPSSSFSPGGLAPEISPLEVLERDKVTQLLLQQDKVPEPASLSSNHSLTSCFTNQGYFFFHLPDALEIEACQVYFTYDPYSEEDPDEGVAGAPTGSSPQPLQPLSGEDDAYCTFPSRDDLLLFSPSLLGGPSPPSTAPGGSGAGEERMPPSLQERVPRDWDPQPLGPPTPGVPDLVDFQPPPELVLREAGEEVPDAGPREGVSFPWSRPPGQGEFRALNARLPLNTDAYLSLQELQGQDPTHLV
T1 sequence (looked up) 2: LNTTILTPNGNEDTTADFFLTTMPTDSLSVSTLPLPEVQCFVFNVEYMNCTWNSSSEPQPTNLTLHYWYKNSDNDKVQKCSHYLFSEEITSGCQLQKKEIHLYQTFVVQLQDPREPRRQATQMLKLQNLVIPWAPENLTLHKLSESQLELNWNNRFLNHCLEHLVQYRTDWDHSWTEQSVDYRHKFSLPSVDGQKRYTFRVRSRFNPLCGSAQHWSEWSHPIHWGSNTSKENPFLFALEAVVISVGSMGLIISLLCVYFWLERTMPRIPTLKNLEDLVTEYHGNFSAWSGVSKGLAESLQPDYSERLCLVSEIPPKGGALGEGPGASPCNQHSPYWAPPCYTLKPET

For assay [2], the target named is T2, human high-affinity IL-2 receptor IL-2Rαβγ on cells (human, UniProt P01589 22-272; P14784 27-551; P31785 23-369).
T2 sequence (looked up) 1: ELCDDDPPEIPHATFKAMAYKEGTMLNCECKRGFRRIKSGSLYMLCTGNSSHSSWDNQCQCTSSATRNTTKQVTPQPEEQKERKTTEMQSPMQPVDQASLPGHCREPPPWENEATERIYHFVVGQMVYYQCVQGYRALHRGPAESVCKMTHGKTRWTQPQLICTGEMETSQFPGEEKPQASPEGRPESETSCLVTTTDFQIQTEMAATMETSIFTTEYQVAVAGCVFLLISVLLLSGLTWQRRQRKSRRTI
T2 sequence (looked up) 2: T1 sequence (looked up) 1
T2 sequence (looked up) 3: T1 sequence (looked up) 2

The target in assay [3] is T3, mouse high-affinity IL-2 receptor IL-2Rαβγ on cells (mouse, UniProt P01590 22-268; P16297 27-539; P34902 23-369).
T3 sequence (looked up) 1: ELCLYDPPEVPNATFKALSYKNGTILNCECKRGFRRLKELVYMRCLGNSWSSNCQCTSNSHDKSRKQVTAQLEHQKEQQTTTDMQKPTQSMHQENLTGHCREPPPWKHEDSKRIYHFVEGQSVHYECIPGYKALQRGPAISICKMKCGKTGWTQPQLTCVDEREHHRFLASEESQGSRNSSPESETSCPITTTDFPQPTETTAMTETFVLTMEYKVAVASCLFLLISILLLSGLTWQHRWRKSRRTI
T3 sequence (looked up) 2: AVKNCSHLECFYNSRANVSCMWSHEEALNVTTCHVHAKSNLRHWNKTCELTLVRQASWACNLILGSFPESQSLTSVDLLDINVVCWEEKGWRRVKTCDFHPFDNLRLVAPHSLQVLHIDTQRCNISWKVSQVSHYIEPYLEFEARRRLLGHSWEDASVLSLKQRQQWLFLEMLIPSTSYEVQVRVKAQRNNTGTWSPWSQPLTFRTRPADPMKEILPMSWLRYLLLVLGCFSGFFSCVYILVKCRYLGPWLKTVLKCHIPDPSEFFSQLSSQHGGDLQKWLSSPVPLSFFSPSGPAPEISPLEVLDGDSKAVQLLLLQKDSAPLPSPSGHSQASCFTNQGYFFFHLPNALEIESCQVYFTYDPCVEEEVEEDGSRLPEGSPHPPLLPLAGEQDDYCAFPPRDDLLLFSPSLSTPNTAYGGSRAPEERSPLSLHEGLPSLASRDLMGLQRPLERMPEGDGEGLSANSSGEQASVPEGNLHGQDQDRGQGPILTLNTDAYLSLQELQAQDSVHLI
T3 sequence (looked up) 3: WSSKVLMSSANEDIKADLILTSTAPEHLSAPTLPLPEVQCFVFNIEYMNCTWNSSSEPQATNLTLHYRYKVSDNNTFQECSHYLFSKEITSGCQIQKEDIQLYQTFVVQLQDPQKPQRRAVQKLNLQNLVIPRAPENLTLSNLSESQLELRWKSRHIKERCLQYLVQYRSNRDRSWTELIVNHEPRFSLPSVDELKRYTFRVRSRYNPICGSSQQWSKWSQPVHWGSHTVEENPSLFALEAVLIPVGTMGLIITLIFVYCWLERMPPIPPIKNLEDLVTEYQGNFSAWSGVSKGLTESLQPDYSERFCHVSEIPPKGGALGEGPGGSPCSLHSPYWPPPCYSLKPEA

Assay [4] addresses T4, mouse intermediate-affinity IL-2 receptor IL-2Rβγ on cells (mouse, UniProt P16297 27-539; P34902 23-369).
T4 sequence (looked up) 1: T3 sequence (looked up) 2
T4 sequence (looked up) 2: T3 sequence (looked up) 3

Assay [5] concerns the target T1, human intermediate-affinity IL-2 …. The source holds these as a separate data set.
Assay [6] has the same target. This is another data set of the same source.
The target in assay [7] is T2, human high-affinity IL-2 receptor …. This is another data set of the same source.
The target in assay [8] is T3, mouse high-affinity IL-2 receptor …. This is another data set of the same source.
The target of assay [9] is T4, mouse intermediate-affinity IL-2 …. The source holds these as a separate data set.

B1: CP-trIL-2 072 (ligand)
chain: ELKHLQSLEEELKDLEEVLNLAQSKNFHLRPRDLISNINVIVLELKGSETTPTSSSTKKTQLQLEHLLLDLQMILNGINNYKNPTIVEFLNRWITFSQSIISTLT
Consider B1, for which, in [1], the “EC50 of STAT5 activation, human CD8 T cells (flow cytometry)” value came out at 45.7 nM and the “EC50 of STAT5 activation, human NK cells (flow cytometry)” value came out at 15.6 nM. The “EC50 of STAT5 activation, human Tregs (flow cytometry)” value in assay [2] came out at 22 nM. Moreover, the “EC50 of STAT5 activation, mouse Tregs (flow cytometry)” value in assay [3] stood at 129 nM. Besides, in assay [4], the “EC50 of STAT5 activation, mouse CD8 T cells (flow cytometry)” value is 110 nM and the “EC50 of STAT5 activation, mouse NK cells (flow cytometry)” value amounted to 113 nM. Further, the “EC50 (read off the curve): STAT5 phosphorylation in HH cells” value in [5] is around 20 nM. Also, in assay [6], the “% pSTAT5 in human PBMC at High IL-2v concentration (25 nM per paragraph 254); western blot, pSTAT5/STAT5 normalised to 001 High” value came out at 41.4%. Further, in assay [7], the “% pSTAT5 in human PBMC at Low IL-2v concentration (2.5 nM per paragraph 254); western blot, pSTAT5/STAT5 normalised to 001 High” value came out at 6.5%. Also, in assay [8], the “% pSTAT5 in mouse splenocytes at Low IL-2v concentration (2.5 nM per paragraph 254); western blot, pSTAT5/STAT5 normalised to 001 High” value was 30.7%. In addition, in [9], the “% pSTAT5 in mouse splenocytes at High IL-2v concentration (25 nM per paragraph 254); western blot, pSTAT5/STAT5 normalised to 001 High” value was found to be 91.3%.
